Columns and labels:
mass photometry = target: the molecule itself; experiment: mass photometry
MntR D27A [1] = target: T1, MntR D27A (Bacillus subtilis, UniProt P54512 1-142, D27A); experiment: mass photometry
T1 sequence: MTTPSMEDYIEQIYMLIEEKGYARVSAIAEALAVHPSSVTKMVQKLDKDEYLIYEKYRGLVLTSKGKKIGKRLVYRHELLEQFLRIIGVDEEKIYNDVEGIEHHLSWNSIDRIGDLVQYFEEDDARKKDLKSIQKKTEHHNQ

MntR Y22A [2] = target: T2, MntR Y22A (Bacillus subtilis, UniProt P54512 1-142, Y22A); experiment: mass photometry
T2 sequence: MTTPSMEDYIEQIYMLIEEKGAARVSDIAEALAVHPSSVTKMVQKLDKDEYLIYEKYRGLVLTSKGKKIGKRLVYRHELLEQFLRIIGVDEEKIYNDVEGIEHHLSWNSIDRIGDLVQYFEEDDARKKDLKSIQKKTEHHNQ

MntR WT [3] = target: T3, MntR WT (Bacillus subtilis, UniProt P54512 1-142); experiment: mass photometry
T3 sequence: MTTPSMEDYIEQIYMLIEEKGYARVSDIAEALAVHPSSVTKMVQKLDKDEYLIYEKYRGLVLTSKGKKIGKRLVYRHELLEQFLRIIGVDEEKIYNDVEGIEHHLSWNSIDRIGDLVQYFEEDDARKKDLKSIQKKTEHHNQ

MntR Y22A [4] = target: T2, MntR Y22A; experiment: FSEC
MntR WT [5] = target: T3, MntR WT; experiment: FSEC
MntR D27A [6] = target: T1, MntR D27A; experiment: FSEC
MntR WT [7] = target: T3, MntR WT; experiment: FSEC; remark: listed apart in the source
MntR WT [8] = target: T3, MntR WT; experiment: cryo-EM
MntR D27A [9] = target: T1, MntR D27A; experiment: mass photometry; remark: listed apart in the source

B1: Bacillus subtilis MntR, wild type (natural protein)
chain: MTTPSMEDYIEQIYMLIEEKGYARVSDIAEALAVHPSSVTKMVQKLDKDEYLIYEKYRGLVLTSKGKKIGKRLVYRHELLEQFLRIIGVDEEKIYNDVEGIEHHLSWNSIDRIGDLVQYFEEDDARKKDLKSIQKKTEHHNQ
stoichiometry N (mass photometry): 2

B2: C84 (four consensus MntR sites) (dsDNA)
DNA 1: CCTTTTTTGCCTTAAGGAAACTTTTTTGCCTTAAGGAAACTTATTTGCCTTAAGGAAACTACTTTGCCTTAAGGAAACTCGAAG
DNA 2: CTTCGAGTTTCCTTAAGGCAAAGTAGTTTCCTTAAGGCAAATAAGTTTCCTTAAGGCAAAAAAGTTTCCTTAAGGCAAAAAAGG
binding result (MntR D27A [1]): binds
binding result (MntR Y22A [2]): binds
binding result (MntR WT [3]): binds

B3: P26 (mneP site 1) (dsDNA)
DNA 1: CAACGTTGCTATAGACCCACTCGAAA
DNA 2: TTTCGAGTGGGTCTATAGCAACGTTG
binding result (MntR Y22A [4]): no binding
binding result (MntR WT [5]): no binding
binding result (MntR D27A [6]): no binding

B4: H26 (mntH operator) (dsDNA)
DNA 1: GATAATTTGCCTTAAGGAAACTCTTC
DNA 2: GAAGAGTTTCCTTAAGGCAAATTATC
binding result (MntR Y22A [4]): binds
binding result (MntR D27A [6]): binds
binding result (MntR WT [7]): binds

B5: P84 (mneP regulatory region) (dsDNA)
DNA 1: CCTTTTTAGCATAGCTCCAACTTTTTTTCTGTCACCTTATTTATTAGTAAACAGGAAACAACGTTGCTATAGACCCACTCGAAG
DNA 2: CTTCGAGTGGGTCTATAGCAACGTTGTTTCCTGTTTACTAATAAATAAGGTGACAGAAAAAAAGTTGGAGCTATGCTAAAAAGG
binding result (MntR WT [8]): binds
binding result (MntR D27A [9]): binds

— article PMC11882963 (Nature Communications, 2024)
